Results: PMC8298602, “14-3-3-protein regulates Nedd4-2 by modulating interactions between HECT and WW domains” (Communications Biology, 2021)

T1: 14-3-3η (Homo sapiens, UniProt Q04917)
T1 sequence (Q04917 1-246): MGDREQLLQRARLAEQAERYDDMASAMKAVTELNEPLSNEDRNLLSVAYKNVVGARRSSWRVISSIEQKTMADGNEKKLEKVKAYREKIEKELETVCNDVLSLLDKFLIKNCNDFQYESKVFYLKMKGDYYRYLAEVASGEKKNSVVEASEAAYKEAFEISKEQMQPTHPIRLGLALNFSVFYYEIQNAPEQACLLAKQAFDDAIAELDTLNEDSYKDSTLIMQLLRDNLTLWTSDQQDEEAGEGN


Experiments:
14-3-3η [1] = biological target: T1, 14-3-3η; experiment: SV-AUC (sedimentation velocity analytical ultracentrifugation), sw isotherm binding analysis; settings: 300 nM pNedd4-2^186–975 with 0.06−6 μM 14-3-3η, A + B ⇌ AB (Langmuir) model, one pNedd4-2 per 14-3-3η dimer, 50 mM Tris-HCl pH 8.0, 500 mM NaCl, 1 mM TCEP, 0.01% Tergitol NP-40, 20 °C, read-out: apparent KD
Method: Solution properties of Nedd4-2^186–975 and its interactions with 14-3-3 were characterized by sedimentation velocity analytical ultracentrifugation (SV AUC).
Sedimentation velocity (SV) experiments were performed using a ProteomLab^TM XL-I, Beckman Coulter analytical ultracentrifuge. The samples were dialyzed against a buffer containing 20 mM Tris-HCl (pH 7.5), 150 mM NaCl, and 1 mM TCEP before analysis. The samples with the longer construct of Nedd4-2^186–975 were dialyzed against a buffer containing 50 mM Tris-HCl (pH 8.0), 500 mM NaCl, 1 mM TCEP and 0.01% (v/v) Tergitol NP-40 (Sigma). […] The buffer density, viscosity, and partial specific volume of all proteins were estimated using the program […]. All sedimentation profiles were collected with absorbance optics at 280 nm. The sedimentation coefficients c(s) distributions were calculated from raw data using the SEDFIT software package. The calculated distributions were integrated to establish the weight-average sedimentation coefficients corrected to 20 °C and the density of water, sw(20,w). […] The resulting isotherms were fitted with a A + B ⇌ AB model, as implemented in the SEDPHAT software package with previously known sw values of each component. The parameters were verified, and the loading concentrations were corrected using global Lamm-equation modeling, also implemented in the SEDPHAT software[66]

14-3-3η [2] = biological target: T1, 14-3-3η; experiment: native TBE-PAGE complex formation with 14-3-3η; type: binding; settings: 12% native TBE-PAGE, 240 pmol 14-3-3η and 120 pmol Nedd4-2 variant
Method: Based on our estimates, the KD value was lower than 50 nM, as further confirmed by global modeling. TEXT PRINTED IN THE PICTURE: (d) no label printed: KD < 50 nM
Fig. 3 Simultaneous phosphorylation of two 14-3-3 binding motifs pSer342 and pSer448 is required for tight complex formation between pNedd4-2^335–455 and 14-3-3η. a 12% Native TBE-PAGE showing the interaction between 14-3-3η (240 pmol) and Nedd^335–455 variants without (no pS) or with one, two or three phosphorylation sites (120 pmol); 14-3-3η protein alone was loaded on the penultimate lane. b–i Sedimentation velocity analytical ultracentrifugation analysis of the complexes between 14-3-3η and pNedd4-2^335–455 variants showing the sw isotherms of 14-3-3η and Nedd4-2 with all three phosphorylation sites pSer^342 + pThr^367 + pSer^448 (b), with no phosphorylation sites (c), with one phosphorylation site (pSer^342 (d), pThr^367 (e) and pSer^448 (f)), or with two phosphorylation sites (pSer^342 + pThr^367 (g), pSer^342 + pSer^448 (h) and pThr^367 + pSer^448 (i)). […] The c(s) distributions underlying the sw data points are shown in Supplementary Fig. S3.

[3] = SEC-SAXS structural parameters; type: physicochemical; settings: for Rg (Guinier approximation): 20 mM Tris-HCl pH 7.5, 150 mM NaCl, 1 mM TCEP, 3% glycerol
Method: SAXS data were collected on the European Molecular Biology Laboratory (EMBL) P12 beamline, at the storage ring PETRA III (Deutsches Elektronen Synchrotron (DESY), Hamburg, Germany). The SEC-SAXS measurements were conducted in a buffer containing 20 mM Tris-HCl (pH 7.5), 150 mM NaCl, 1 mM TCEP, 3% (w/v) glycerol using Superdex 200 Increase 5/150 GL column (GE Healthcare) at the flow rate 0.5 ml.min^−1 at 293.15 K.
The loading concentrations of the samples were 2.2 mg.ml^−1 for Nedd4-2^186–975, 2 mg.ml^−1 for 14-3-3η and 8.9 mg.ml^−1 for the Nedd4-2^186–975:14-3-3η complex (1:2 molar stoichiometry). The injection volume of the samples was 52 μl. Elution profiles with the corresponding frames were processed using ATSAS 3.0.2 software CHROMIXS[71]. ATSAS software PRIMUS and GNOM were used to determine the excluded volume of the hydrated particle (Vp), the radius of gyration (Rg) and maximum particle dimension (Dmax)[72],[73]. The molecular mass (MW) was determined using a methods described by Rambo et al.[74]. Scattering profiles, P(r) functions, normalized Kratky plots and Guinier approximations were visualized using GraphPad Prism version 8.0.1 for Windows (GraphPad Software, La Jolla California USA, www.graphpad.com). The program DAMMIF was used to calculate the ab inicio molecular envelopes. For the complex, 10 surfaces were generated in slow mode and averaged using DAMAVER[76]. The averaged surfaces were used as the final filtered model of the complex, which was superimposed to the structural model using the SUPCOMB program (EMBL, Hamburg, Germany)[77].

[4] = system: all human 14-3-3 protein isoforms; experiment: native TBE-PAGE isoform binding specificity; settings: 12% TBE-PAGE, 128 pmol 14-3-3 and 64 pmol pNedd4-2^335–455
Method: In addition, we prepared pNedd4-2^335–455 to characterize 14-3-3 isoform binding specificity.
Supplementary Fig. S2. Characterization of the interaction between Nedd4-2 and 14-3-3 in solution. a Continuous sedimentation coefficient distributions (c(s)) of 10 μM pNedd4- […]
mixed at 1:2 (cyan) and 1:1 (green) molar ratios. The protein concentrations were 10 μM for 14335-455 335-455-3-3ε and 5 μM or 10 μM for pNedd4335-455 -2 . b Isoform binding specificity of pNedd4-2 .
Phosphorylated pNedd4-2 , 14-3-3 proteins and their complexes were separated by 12% TBE-PAGE to study the interaction of pNedd4-2335-455 with all seven human 14-3-3 isoforms (β, γ, ε, δ, ε, σ, and τ). The amounts of protein loaded on the native gel were 128 pmol of 14335-455 -3-3 and […]
(1 picture or pasted object on this page, not shown here)

[5] = SV-AUC continuous sedimentation coefficient distributions c(s); type: physicochemical
Method: Sedimentation velocity (SV) experiments were performed using a ProteomLab^TM XL-I, Beckman Coulter analytical ultracentrifuge. The samples were dialyzed against a buffer containing 20 mM Tris-HCl (pH 7.5), 150 mM NaCl, and 1 mM TCEP before analysis. The samples with the longer construct of Nedd4-2^186–975 were dialyzed against a buffer containing 50 mM Tris-HCl (pH 8.0), 500 mM NaCl, 1 mM TCEP and 0.01% (v/v) Tergitol NP-40 (Sigma). […] The buffer density, viscosity, and partial specific volume of all proteins were estimated using the program […]. All sedimentation profiles were collected with absorbance optics at 280 nm. The sedimentation coefficients c(s) distributions were calculated from raw data using the SEDFIT software package. The calculated distributions were integrated to establish the weight-average sedimentation coefficients corrected to 20 °C and the density of water, sw(20,w). The sw values were plotted as a function of Nedd4-2^355–455 or 14-3-3η concentration to construct sw isotherms. The resulting isotherms were fitted with a A + B ⇌ AB model, as implemented in the SEDPHAT software package with previously known sw values of each component. The parameters were verified, and the loading concentrations were corrected using global Lamm-equation modeling, also implemented in the SEDPHAT software[66]

[6] = frames from the right side of the elution peak
[7] = frames from the top of the elution peak

Molecule	Kd (14-3-3η [1]) [µM]	complex formation on native TBE-PAGE (14-3-3η [2])	Dmax [3, 6] [nm]	Rg (GNOM) [3, 6] [nm]	VP (Porod volume) [3, 6] [nm^3]	Rg (Guinier approximation) [3, 6] [nm]	Dmax [3, 7] [nm]	Rg (GNOM) [3, 7] [nm]	VP (Porod volume) [3, 7] [nm^3]	Rg (Guinier approximation) [3, 7] [nm]	maximum particle dimension Dmax ([3]; from P(r) functions) [Å]	complex formation on native TBE-PAGE, all isoforms [4]	f/f0 ([5]; SV-AUC c(s) analysis)	weight-averaged sedimentation coefficient sw(20,w), unit not given ([5]; corrected to 20.0 °C and density of water) [S]
Nedd4-2^186–975: N-terminally truncated human Nedd4-2, missing the C2 domain (protein, phosphoserine at 342, phosphothreonine at 367, phosphoserine at 448 (PKA in vitro, confirmed by LC-MS); left off: His6, C-terminal, kept, N-terminally truncated human Nedd4-2, missing the C2 domain) HQEELPPPPLPPGWEEKVDNLGRTYYVNHNNRTTQWHRPSLMDVSSESDNNIRQINQEAAHRRFRSRRHISEDLEPEPSEGGDVPEPWETISEEVNIAGDSLGLALPPPPASPGSRTSPQELSEELSRRLQITPDSNGEQFSSLIQREPSSRLRSCSVTDAVAEQGHLPPPSAPAGRARSSTVTGGEEPTPSVAYVHTTPGLPSGWEERKDAKGRTYYVNHNNRTTTWTRPIMQLAEDGASGSATNSNNHLIEPQIRRPRSLSSPTVTLSAPLEGAKDSPVRRAVKDTLSNPQSPQPSPYNSPKPQHKVTQSFLPPGWEMRIAPNGRPFFIDHNTKTTTWEDPRLKFPVHMRSKTSLNPNDLGPLPPGWEERIHLDGRTFYIDHNSKITQWEDPRLQNPAITGPAVPYSREFKQKYDYFRKKLKKPADIPNRFEMKLHRNNIFEESYRRIMSVKRPDVLKARLWIEFESEKGLDYGGVAREWFFLLSKEMFNPYYGLFEYSATDNYTLQINPNSGLCNEDHLSYFTFIGRVAGLAVFHGKLLDGFFIRPFYKMMLGKQITLNDMESVDSEYYNSLKWILENDPTELDLMFCIDEENFGQTYQVDLKPNGSEIMVTNENKREYIDLVIQWRFVNRVQKQMNAFLEGFTELLPIDLIKIFDENELELLMCGLGDVDVNDWRQHSIYKNGYCPNHPVIQWFWKAVLLMDAEKRIRLLQFVTGTSRVPMNGFAELYGSNGPQLFTIEQWGSPEKLPRAHTCFNRLDLPPYETFEDLREKLLMAVENAQGFEGVD	~0.05	phosphorylation-dependent interaction	16.9	4.54 ± 0.02	192	4.39 ± 0.02	18.3	4.92 ± 0.01	218	4.67 ± 0.01	169	–	–	–
pNedd4-2^335–455: shorter Nedd4-2 variant missing both the C2 and the HECT domains, all three phosphorylation sites (protein, phosphoserine at 342, phosphothreonine at 367, phosphoserine at 448; left off: His6, N-terminal, cleaved | GB1 domain of protein G, N-terminal, cleaved, shorter Nedd4-2 variant missing both the C2 and the HECT domains, all three phosphorylation sites) SSRLRSCSVTDAVAEQGHLPPPSAPAGRARSSTVTGGEEPTPSVAYVHTTPGLPSGWEERKDAKGRTYYVNHNNRTTTWTRPIMQLAEDGASGSATNSNNHLIEPQIRRPRSLSSPTVTLS	–	–	–	–	–	–	–	–	–	–	–	forms stable complexes	1.5	1.4
